# According to patent publication US20100189695A1, “IRAK-1 AS REGULATOR OF DISEASES AND DISORDERS” (priority 2008, published 2010):
# Substitutions are numbered along the chain they refer to. In names and notes the source's numbering stands.
# B1: Interleukin-1 Receptor Associated Kinase-1 (protein)
# chain: MAGGPGPGEPVVPGAQHFLYEVPPWVMCRFYKVMDALEPADWCQFAALIVRDQTELRLCERSEQRTASVLWPWINRNARVADLVHILTHLQLLRARDIITAWHPPAPVVPPSTAAPRPSSISAGSEAGDWSPRKLQSSASTFLSPAFPGSQTHSESELLQVPLPVSLGPPLPSSAPSSTKSSPESPVSGLQRAHPSPFCWPFCEISQGTCNFSEELRIGEGGFGCVYRAVMRNTTYAVKRLKEEADLEWTMVKQSFLTEVEQLSRFRHPNIVDFAGYCAESGLYCLVYGFLPNGSLEDQLHLQTQACSPLSWPQRLDILLGTARAIQFLHQDSPSLIHGDIKSSNVLLDERLMPKLGDFGLARFSRFAGAKASQSSTVARTSTVRGTLAYLPEEYIKTGRLAVDTDTFSFGVVILETLAGQRAVRTQGAKTKYLKDLIEDEAEEAGVTLKSTQPTLWVGVATDAWAAPIAAQIYKKHLDSRPGPCPPQLGLALAQLACCCMHRRAKKRPPMTQVYKRLEGLQAGPPWELEVAGHGSPSPQENSYMSTTGSAQSGDEPWQPLVVTTRAPAQAAQQLQRSPNQPVESDESVPGLSATLHSWHLTPGSHPSPASFREASCTQGGTTRESSVRSSPGFQPTTMEGSPTGSSSLLSSEPPQIIINPARQKMVQKLALYEEGVLDSLQLLSSGFFPGLDLEPEKSQGPEESDEFQS
# B2: IRAK-1-ΔC: truncated version of IRAK-1 with deletion of the C terminal region (amino acids 548 to 712 are deleted) (protein, UniProt P51617 1-547, looked up, fragment)
# chain: MAGGPGPGEPAAPGAQHFLYEVPPWVMCRFYKVMDALEPADWCQFAALIVRDQTELRLCERSGQRTASVLWPWINRNARVADLVHILTHLQLLRARDIITAWHPPAPLPSPGTTAPRPSSIPAPAEAEAWSPRKLPSSASTFLSPAFPGSQTHSGPELGLVPSPASLWPPPPSPAPSSTKPGPESSVSLLQGARPFPFCWPLCEISRGTHNFSEELKIGEGGFGCVYRAVMRNTVYAVKRLKENADLEWTAVKQSFLTEVEQLSRFRHPNIVDFAGYCAQNGFYCLVYGFLPNGSLEDRLHCQTQACPPLSWPQRLDILLGTARAIQFLHQDSPSLIHGDIKSSNVLLDERLTPKLGDFGLARFSRFAGSSPSQSSMVARTQTVRGTLAYLPEEYIKTGRLAVDTDTFSFGVVVLETLAGQRAVKTHGARTKYLKDLVEEEAEEAGVALRSTQSTLQAGLAADAWAAPIAMQIYKKHLDPRPGPCPPELGLGLGQLACCCLHRRAKRRPPMTQVYERLEKLQAVVAGVPGHSEAASCIPPSPQENSY
# B3: IRAK-M: a homologue of IRAK-1 (protein)
# chain: MAGNCGARGALSAHTLLFDLPPALLGELCAVLDSCDGALGWRGLAERLSSSWLDVRHIEKYVDQGKSGTRELLWSWAQKNKTIGDLLQVLQEMGHRRAIHLITNYGAVLSPSEKSYQEGGFPNILFKETANVTVDNVLIPEHNEKGILLKSSISFQNIIEGTRNFHKDFLIGEGEIFEVYRVEIQNLTYAVKLFKQEKKMQCKKHWKRFLSELEVLLLFHHPNILELAAYFTETEKFCLIYPYMRNGTLFDRLQCVGDTAPLPWHIRIGILIGISKAIHYLHNVQPCSVICGSISSANILLDDQFQPKLTDFAMAHFRSHLEHQSCTINMTSSSSKHLWYMPEEYIRQGKLSIKTDVYSFGIVIMEVLTGCRVVLDDPKHIQLRDLLRELMEKRGLDSCLSFLDKKVPPCPRNFSAKLFCLAGRCAATRAKLRPSMDEVLNTLESTQASLYFAEDPPTSLKSFRCPSPLFLENVPSIPVEDDESQNNNLLPSDEGLRIDRMTQKTPFECSQSEVMFLSLDKKPESKRNEEACNMPSSSCEESWFPKYIVPSQDLRPYKVNIDPSSEAPGHSCRSRPVESSCSSKFSWDEYEQYKKE
# B4: IRAK-1b: isoform of IRAK-1 that does not possess kinase activity (protein)
# chain: MAGGPGPGEPAAPGAQHFLYEVPPWVMCRFYKVMDALEPADWCQFAALIVRDQTELRLCERSGQRTASVLWPWINRNARVADLVHILTHLQLLRARDIITAWHPPAPLPSPGTTAPRPSSIPAPAEAEAWSPRKLPSSASTFLSPAFPGSQTHSGPELGLVPSPASLWPPPPSPAPSSTKPGPESSVSLLQGARPFPFCWPLCEISRGTHNFSEELKIGEGGFGCVYRAVMRNTVYAVKRLKENADLEWTAVKQSFLTEVEQLSRFRHPNIVDFAGYCAQNGFYCLVYGFLPNGSLEDRLHCQTQACPPLSWPQRLDILLGTARAIQFLHQDSPSLIHGDIKSSNVLLDERLTPKLGDFGLARFSRFAGSSPSQSSMVARTQTVRGTLAYLPEEYIKTGRLAVDTDTFSFGVVVLETLAGQRAVKTHGARTKYLKDLVEEEAEEAGVALRSTQSTLQAGLAADAWAAPIAMQIYKKHLDPRPGPCPPELGLGLGQLACCCLHRRAKRRPPMTQENSYVSSTGRAHSGAAPWQPLAAPSGASAQAAEQLQRGPNQPVESDESLGGLSAALRSWHLTPSCPLDPAPLREAGCPQGDTAGESSWGSGPGSRPTAVEGLALGSSASSSSEPPQIIINPARQKMVQKLALYEDGALDSLQLLSSSSLPGLGLEQDRQGPEESDEFQS
# B5: D340N: mutated IRAK-1 molecule, mutation present in human patients with cardiovascular diseases (protein, UniProt P51617 1-712, looked up, variant D340N)
# Interleukin-1 …: MAGGPGPGEPAAPGAQHFLYEVPPWVMCRFYKVMDALEPADWCQFAALIVRDQTELRLCERSGQRTASVLWPWINRNARVADLVHILTHLQLLRARDIITAWHPPAPLPSPGTTAPRPSSIPAPAEAEAWSPRKLPSSASTFLSPAFPGSQTHSGPELGLVPSPASLWPPPPSPAPSSTKPGPESSVSLLQGARPFPFCWPLCEISRGTHNFSEELKIGEGGFGCVYRAVMRNTVYAVKRLKENADLEWTAVKQSFLTEVEQLSRFRHPNIVDFAGYCAQNGFYCLVYGFLPNGSLEDRLHCQTQACPPLSWPQRLDILLGTARAIQFLHQDSPSLIHGNIKSSNVLLDERLTPKLGDFGLARFSRFAGSSPSQSSMVARTQTVRGTLAYLPEEYIKTGRLAVDTDTFSFGVVVLETLAGQRAVKTHGARTKYLKDLVEEEAEEAGVALRSTQSTLQAGLAADAWAAPIAMQIYKKHLDPRPGPCPPELGLGLGQLACCCLHRRAKRRPPMTQVYERLEKLQAVVAGVPGHSEAASCIPPSPQENSYVSSTGRAHSGAAPWQPLAAPSGASAQAAEQLQRGPNQPVESDESLGGLSAALRSWHLTPSCPLDPAPLREAGCPQGDTAGESSWGSGPGSRPTAVEGLALGSSASSSSEPPQIIINPARQKMVQKLALYEDGALDSLQLLSSSSLPGLGLEQDRQGPEESDEFQS
# B6: T113I: mutated IRAK-1 molecule, mutation present in human patients with cardiovascular diseases (protein, UniProt P51617 1-712, looked up, variant T113I)
# Interleukin-1 …: B5 Interleukin-1 … with T113I, N340D
# B7: C203S: mutated IRAK-1 molecule, mutation present in human patients with cardiovascular diseases (protein, UniProt P51617 1-712, looked up, variant C203S)
# Interleukin-1 …: B5 Interleukin-1 … with C203S, N340D
# Test system: NFAT
# Assay: Co-immunoprecipitation of Flag-IRAK-1 constructs with NFAT in transfected Hela cells
# Type: binding, human
# Details: anti-Flag IP, anti-NFAT Western blot
# Protocol: To further delineate which part of IRAK-1 is involved in its interaction with NFAT, experiments were performed using full-length IRAK-1 and a C-terminally truncated form (IRAK-1ΔC—see FIG. 1). Specifically, Hela cells were transfected with IRAK-1 encoding plasmids that express either the full length wild type human IRAK-1 protein or a truncated version of IRAK-1 with deletion of the C terminal region (amino acids 548 to 712 are deleted). Equal amount of cell lysates were harvested from the transfected cells and used to perform co-immunoprecipitation assays with an anti-Flag antibody. Immunoprecipitated proteins were resolved by electrophoresis, and the co-immunoprecipitated proteins were subjected to Western blot analyses using an anti-NFAT antibody.
row,Molecule,co-immunoprecipitation with NFAT
1,B1,capable of co-immunoprecipitating with NFAT

# Test system: NFAT
# Assay: NFAT responsive element luciferase reporter assay in transfected Hela cells
# Type: cell-based, human
# Details: co-transfection of expression plasmid with NFAT reporter
# Excerpt: NFAT family transcription factors play critical roles in the pathogenesis of cardiovascular diseases, including hypertension and atherosclerosis. […] First, human Hela cells were trasfected with either empty vector plasmid or wild type IRAK-1 expression plasmid together with a NFAT responsive element-containing luciferase reporter plasmid. […] Subsequently, plasmids that express mutated IRAK-1 molecules (D340N, C203S, T113I, mutations which are present in human patients with cardiovascular diseases) have been generated.
# Further experiments were performed to ask whether the C-terminal domain of IRAK-1 is involved in facilitating its suppressive regulatory function toward NFAT activity. […] Statistical significance was calculated using a t-Test for two-samples assuming unequal variances and p-values are as indicated.
# In order to determine the mechanism for IRAK-1 involvement, transcription factor reporter assays were performed. In this set of experiments, NFAT reporter activity was determined in the presence of IRAK-1 or IRAK-M, a homologue of IRAK-1 (FIG. 10).
row,Molecule,suppression of NFAT reporter activity
1,B2,failed to suppress NFAT activity
2,B3,did not show suppression of NFAT
3,B4,cannot fulfill the inhibitory function on NFAT
4,B5,failed to suppress NFAT activity
5,B6,failed to suppress NFAT activity
6,B7,failed to suppress NFAT activity
7,B1,suppression of NFAT by IRAK-1 could be seen

# Same assay, conditions: co-transfection with NFAT-luciferase reporter plasmid, Hela cells; control adjusted to 100%
row,Molecule,reduction of NFAT reporter luciferase activity compared with the control transfection [%]
1,B1,−80
